# Key:
# [1] = molecular target: human IgG (Sigma) (human); experiment: SPR (BIAcore); protein G layer on gold thin film, human IgG 100 ug/ml injected
# [2] = molecular target: anti-human Kallikrein 3/PSA antibody (R&D systems); experiment: SPR (BIAcore); protein G layer on gold thin film, anti-PSA antibody 0.5 ug/ml injected
substance,measurement,setting,value
"untagged Streptococcal protein G variant recombinant protein (B1 and B2 domains, not tagged with cysteine) (from UniProt P19909 313-497)",change in surface plasmon resonance signal,[1],1000 RU
same,change in surface plasmon resonance signal,[2],114 RU

# Source: patent US20100173430A1
